{
  "source": "patent US20210260070A1",
  "about": "“LYSIN CF-301 RESENSITIZES METHICILLIN-RESISTANT STAPHYLOCOCCUS AUREUA (MRSA) TO PENICILLIN DERIVATIVES AND FIRST GENERATION CEPHALOSPORINS” (priority 2018, published 2021)",
  "key": {"[1]": {"tested_on": "nine different MRSA strains", "test": "Broth microdilution checkerboard assays, summary over the panel", "type": "cell-based, Staphylococcus aureus", "conditions": "each of the nine MRSA strains; breakpoint MIC ≤2 sensitive", "excerpt": "In some embodiments, the present lysin polypeptides reduce the minimum inhibitory concentration (MIC) of an antibiotic. Any known method to assess MIC may be used. In some embodiments, a checkerboard assay is used to determine the effect of a lysin on antibiotic concentration. The checkerboard assay is based on a modification of the CLSI method for MIC determination by broth microdilution (See Clinical and Laboratory Standards Institute (CLSI), CLSI. 2015. Methods for Dilution Antimicrobial Susceptibility Tests for Bacteria That Grow Aerobically; Approved Standard-10th Edition. Clinical and Laboratory Standards Institute, Wayne, Pa., which is herein incorporated by reference in its entirety and Ceri et al. 1999. J. Clin. Microbiol. 37: 1771-1776, which is also herein incorporated by reference in its entirety).\nCheckerboards are constructed by first preparing columns of e.g., a 96-well polypropylene microtiter plate, wherein each well has the same amount of antibiotic diluted 2-fold along the horizontal axis. […] The lysin and antibiotic dilutions are then combined, so that each column has a constant amount of antibiotic and doubling dilutions of lysin, while each row has a constant amount of lysin and doubling dilutions of antibiotic. Each well thus has a unique combination of lysin and antibiotic. Bacteria are added to the drug combinations at a given concentration. […] Summation fractional inhibitory concentrations (ΣFICs) are calculated for each drug and the minimum ΣFIC value (ΣFICmin) is used to determine the effect of the lysin/antibiotic combination.\nA step-wise approach was used to evaluate PlySs2 as a resensitizing agent. First, broth microdilution checkerboard assays were used to determine fractional inhibitory concentration index (FICI) values for combinations of PlySs2 with three β-lactam antibiotics [oxacillin (OXA), nafcillin (NAF), and cefazoline (CFZ)] against nine different MRSA strains. […] Representative single agent MICs are also shown, determined for each agent alone (initial) and in combinations (final). […]"}, "[2]": {"tested_on": "MRSA strain MW2", "test": "21-day in vitro serial passage resistance assay", "type": "cell-based, Staphylococcus aureus", "excerpt": "Serial passage resistance studies were undertaken to assess the ability of PlySs2 lysin to suppress the emergence of antibiotic resistance when used in combination with oxacillin used to treat S. aureus infections. Methods used to perform serial passage experiments are described in Palmer et al., Genetic basis for daptomycin resistance in enterococci, ANTIMICROBIAL AGENTS AND CHEMOTHERAPY (2011); 55:3345-56 and Berti et al., Altering the Proclivity towards Daptomycin Resistance in Methicillin-Resistant Staphylococcus aureus Using Combinations with Other Antibiotics, ANTIMICROBIAL AGENTS AND CHEMOTHERAPY (2012); 56:5046-53, respectively.\n21-day in vitro serial passage resistance assays were performed to determine the impact of PlySs2 (alone) on oxacillin and PlySs2 MIC values and the potential for a “seesaw” effect similar to that previously shown, whereby exposures to daptomycin or vancomycin were accompanied by increased susceptibility (and the potential for resensitization) to β-lactam antibiotics [Renzoni et al., Molecular Bases Determining Daptomycin Resistance-Mediated Resensitizatoin to β-Lactams (Seesaw Effect) in Methicillin-Resistant Staphylococcus aureus, ANTIMICROBIAL AGENTS AND CHEMOTHERAPY (2017) 61(1):e01634-16 and Werth et al., Evaluation of Ceftaroline Activity against Heteroresistant Vancomycin-Intermediate Staphylococcus aureus and Vancomycin-Intermediate Methicillin-Resistant S. aureus Strains in an In Vitro Pharmacokinetic/Pharmacodynamic Model: Exploring the ‘Seesaw Effect’, ANTIMICROBIAL AGENTS AND CHEMOTHERAPY (2013); 57(6):2664-68].\nMRSA strain MW2 was serially passaged in triplicate on a daily basis for 21 days using both a 1.1-fold and 2-fold PlySs2 dilution series. As shown in FIGS. 1-3, only modest 2-fold shifts in PlySs2 MIC values were observed. […] This seesaw effect, i.e., a decrease in MRSA's susceptibility to PlySs2 accompanied by a paradoxical increase in susceptibility to oxacillin, indicates PlySs2 lysin's ability to resensitize MRSA to oxacillin. Three MRSA MW2 strain isolates were taken just prior (days 16, 11, and 8 for FIGS. 1-3, respectively) and just after (days 17, 12, and 9 for FIGS. 1-3, respectively) the observed MIC shift for whole genome sequencing."}, "[3]": {"tested_on": "MRSA", "test": "Standard rabbit model of MRSA infective endocarditis (IE), CFU in valvular vegetations", "type": "in vivo, Staphylococcus aureus", "experimental": "An ex vivo analysis was performed on tissue samples recovered after PlySs2 treatment in a standard rabbit model of MRSA infective endocarditis (IE), as disclosed in Xiong et al., Comparative efficacy of telavancin and daptomycin in experimental endocarditis due to multi-clonotype MRSA strains, J. ANTIMIC. CHEMO. (2016); 71(1):2890-94. The standard rabbit IE model was used to confirm the impact of PlySs2 treatment on oxacillin MICs. Four days after treatment with a single-dose of PlySs2 (0.18 mg/kg to 1.4 mg/kg) in the IE model, isolates were recovered from valvular vegetations and plated on TSAB (non-selective condition, Tables 3 and 4) and TSAB supplemented with PlySs2 over a range of concentrations (selective conditions, Tables 5 and 6). MIC values of the MRSA isolates were determined for both PlySs2 and oxacillin. Tables 3 and 4 below show the MICs calculated for PlySs2 and oxacillin, respectively, for valvular vegetations subject to the non-selective conditions."}},
  "data": [
    {"molecule": "Cc1onc(-c2ccccc2)c1C(=O)N[C@@H]1C(=O)N2[C@@H]1SC(C)(C)[C@@H]2C(=O)O", "note": "[OXA, oxacillin]", "values": [
      {"measurement": "MIC in synergistic combination with PlySs2 relative to breakpoint", "setting": "[1]", "result": "below breakpoint values"},
      {"measurement": "OXA MIC after shift", "setting": "[2]; MW2, serial passage in PlySs2, after the shift", "result": 16, "unit": "µg/mL"},
      {"measurement": "OXA MIC before shift", "setting": "[2]; MW2, serial passage in PlySs2, before the shift", "result": 64, "unit": "µg/mL"},
      {"measurement": "OXA MIC fold change", "setting": "[2]; MW2 after PlySs2 exposure in serial passage", "result": 0.25, "unit": "fold"}
    ]},
    {"molecule": "PlySs2: bacteriophage lysin derived from Streptococcus suis, amino acid sequence SEQ ID NO: 1 (245 residues) (protein, listed as Streptococcus suis) MTTVNEALNNVRAQVGSGVSVGNGECYALASWYERMISPDATVGLGAGVGWVSGAIGDTISAKNIGSSYNWQANGWTVSTSGPFKAGQIVTLGATPGNPYGHVVIVEAVDGDRLTILEQNYGGKRYPVRNYYSAASYRQQVVHYITPPGTVAQSAPNLAGSRSYRETGTMTVTVDALNVRRAPNTSGEIVAVYKRGESFDYDTVIIDVNGYVWVSYIGGSGKRNYVATGATKDGKRFGNAWGTFK", "values": [
      {"measurement": "Shift in PlySs2 MIC values", "setting": "[2]; MW2 passaged daily for 21 days in 1.1-fold and 2-fold PlySs2 dilution series, triplicate", "result": 2, "unit": "fold"},
      {"measurement": "Log10 CFU/g of Vegetation", "setting": "[3]; PlySs2 0.18 mg/kg, TSAB supplemented with PlySs2, 128 (unit not given)", "result": "4.6 ± 0.7", "unit": "Log10 CFU/g"},
      {"measurement": "Log10 CFU/g of Vegetation", "setting": "[3]; PlySs2 0.18 mg/kg, TSAB supplemented with PlySs2, column 16 (unit not printed)", "result": "7.1 ± 0.1", "unit": "Log10 CFU/g"},
      {"measurement": "Log10 CFU/g of Vegetation", "setting": "[3]; PlySs2 0.18 mg/kg, TSAB supplemented with PlySs2, column 32 (unit not printed)", "result": "7.1 ± 0.1", "unit": "Log10 CFU/g"},
      {"measurement": "Log10 CFU/g of Vegetation", "setting": "[3]; PlySs2 0.18 mg/kg, TSAB supplemented with PlySs2, column 64 (unit not given)", "result": "6.6 ± 0.9", "unit": "Log10 CFU/g"},
      {"measurement": "Log10 CFU/g of Vegetation", "setting": "[3]; PlySs2 0.35 mg/kg, TSAB supplemented with PlySs2, 128 (unit not given)", "result": "3.4 ± 1.3", "unit": "Log10 CFU/g"},
      {"measurement": "Log10 CFU/g of Vegetation", "setting": "[3]; PlySs2 0.35 mg/kg, TSAB supplemented with PlySs2, column 16 (unit not printed)", "result": "6.9 ± 0.2", "unit": "Log10 CFU/g"},
      {"measurement": "Log10 CFU/g of Vegetation", "setting": "[3]; PlySs2 0.35 mg/kg, TSAB supplemented with PlySs2, column 32 (unit not printed)", "result": "6.4 ± 0.5", "unit": "Log10 CFU/g"},
      {"measurement": "Log10 CFU/g of Vegetation", "setting": "[3]; PlySs2 0.35 mg/kg, TSAB supplemented with PlySs2, column 64 (unit not given)", "result": "5.5 ± 0.6", "unit": "Log10 CFU/g"},
      {"measurement": "Log10 CFU/g of Vegetation", "setting": "[3]; PlySs2 0.7 mg/kg, TSAB supplemented with PlySs2, 128 (unit not given)", "result": "<2.1 ± 0.1", "unit": "Log10 CFU/g"},
      {"measurement": "Log10 CFU/g of Vegetation", "setting": "[3]; PlySs2 0.7 mg/kg, TSAB supplemented with PlySs2, column 16 (unit not printed)", "result": "6.7 ± 0.1", "unit": "Log10 CFU/g"},
      {"measurement": "Log10 CFU/g of Vegetation", "setting": "[3]; PlySs2 0.7 mg/kg, TSAB supplemented with PlySs2, column 32 (unit not printed)", "result": "5.7 ± 1.1", "unit": "Log10 CFU/g"},
      {"measurement": "Log10 CFU/g of Vegetation", "setting": "[3]; PlySs2 0.7 mg/kg, TSAB supplemented with PlySs2, column 64 (unit not given)", "result": "3.8 ± 1.8", "unit": "Log10 CFU/g"},
      {"measurement": "Log10 CFU/g of Vegetation", "setting": "[3]; PlySs2 1.4 mg/kg, TSAB supplemented with PlySs2, 128 (unit not given)", "result": "2.8 ± 1.2", "unit": "Log10 CFU/g"},
      {"measurement": "Log10 CFU/g of Vegetation", "setting": "[3]; PlySs2 1.4 mg/kg, TSAB supplemented with PlySs2, column 16 (unit not printed)", "result": "7.1 ± 0.06", "unit": "Log10 CFU/g"},
      {"measurement": "Log10 CFU/g of Vegetation", "setting": "[3]; PlySs2 1.4 mg/kg, TSAB supplemented with PlySs2, column 32 (unit not printed)", "result": "5.9 ± 0.03", "unit": "Log10 CFU/g"},
      {"measurement": "Log10 CFU/g of Vegetation", "setting": "[3]; PlySs2 1.4 mg/kg, TSAB supplemented with PlySs2, column 64 (unit not given)", "result": "4.2 ± 1.7", "unit": "Log10 CFU/g"},
      {"measurement": "Log10 CFU/g of Vegetation", "setting": "[3]; single dose PlySs2 0.18 mg/kg, four days after treatment, TSAB non-selective (0)", "result": "8.65 ± 0.58", "unit": "Log10 CFU/g"},
      {"measurement": "Log10 CFU/g of Vegetation", "setting": "[3]; single dose PlySs2 0.35 mg/kg, four days after treatment, TSAB non-selective (0)", "result": "8.17 ± 0.58", "unit": "Log10 CFU/g"},
      {"measurement": "Log10 CFU/g of Vegetation", "setting": "[3]; single dose PlySs2 0.7 mg/kg, four days after treatment, TSAB non-selective (0)", "result": "7.93 ± 0.12", "unit": "Log10 CFU/g"},
      {"measurement": "Log10 CFU/g of Vegetation", "setting": "[3]; single dose PlySs2 1.4 mg/kg, four days after treatment, TSAB non-selective (0)", "result": "8.24 ± 0.02", "unit": "Log10 CFU/g"}
    ]}
  ]
}
